This note sets out measurements from patent US20100322937A1.

By Kd is commonly meant the concentration at which binding is half-saturated.

Assay [1] addresses wtEGFR: full-length human EGFR with FLAG tag after the leader, on BaF/3 cells (human) (UniProt P00533). Description: FACS median fluorescence, wtEGFR-BaF/3 cells preincubated with mAb[…] (10 µg/ml, 37 C, 1 hr).
Assay [2] shares this target. Description: FACS median fluorescence, wtEGFR-BaF/3 cells preincubated with EGF (10 ng/ml, 4 C, 15 min).
For assay [3] the target is unchanged. Description: FACS, wtEGFR-BaF/3 cells after mock preincubation, antibody at 10 µg/ml. A general note: Flow cytometry measures light scatter and fluorescence of single cells or particles in a stream.
For assay [4], the target named is EGFR 273-621 C287R, yeast surface displayed (UniProt P00533). Description: from titration on yeast surface displayed fragments.
In assay [5] the target is EGFR 273-621 E293K, yeast surface displayed (UniProt P00533). The assay is described as above.
Assay [6] addresses wild-type EGFR 273-621 (C283A template), yeast surface displayed, C-terminal c-myc tag (UniProt P00533). The experiment in a line: titration on yeast surface displayed fragment, flow cytometry, global fit of three data sets.
The target of assay [7] is EGFR 273-621 C287R, yeast surface displayed (UniProt P00533). The description is as above.

monoclonal antibody 806 (mAb 806), murine IgG2b anti-EGFR, sequence (VH): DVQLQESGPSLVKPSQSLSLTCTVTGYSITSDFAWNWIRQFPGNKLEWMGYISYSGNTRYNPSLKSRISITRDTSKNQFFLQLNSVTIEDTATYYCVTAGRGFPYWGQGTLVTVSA
monoclonal antibody 806 (mAb 806), murine IgG2b anti-EGFR, sequence (VL): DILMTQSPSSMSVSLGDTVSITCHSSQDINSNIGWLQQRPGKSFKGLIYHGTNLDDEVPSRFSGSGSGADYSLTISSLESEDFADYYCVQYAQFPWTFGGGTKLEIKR

“monoclonal antibody 528 (mAb 528), IgG2a anti-EGFR”: the change (%) in antibody reactivity after preincubation in assay [1] was -3%; in assay [2], -23%. Moreover, in assay [3], the median fluorescence is 112.

On to “monoclonal antibody 806 (mAb 806), murine IgG2b anti-EGFR”, for which the results for the ΔΔG compared to wild-type in assay [4] and in assay [5] were 2.4 kcal/mol and 5.7 kcal/mol, respectively. Moreover, the figures for the change (%) in antibody reactivity after preincubation in assay [1] and in assay [2] were 163% and -48%, respectively. Also, the median fluorescence in assay [3] was 7. For the same substance, the Kd in assay [6] was found to be 2.13 nM; in assay [7] it was 127 nM.
